B1: NIH45-46 (antibody, V domains shown)
VH: QVRLSQSGGQMKKPGESMRLSCRASGYEFLNCPINWIRLAPGRRPEWMGWLKPRGGAVNYARKFQGRVTMTRDVYSDTAFLELRSLTSDDTAVYFCTRGKYCTARDYYNWDFEHWGRGAPVTVSS
VL: EIVLTQSPATLSLSPGETAIISCRTSQSGSLAWYQQRPGQAPRLVIYSGSTRAAGIPDRFSGSRWGADYNLSISNLESGDFGVYYCQQYEFFGQGTKVQVD
B2: 3BNC60 (antibody, V domains shown)
VH: QVHLSQSGAAVTKPGASVRVSCEASGYKISDHFIHWWRQAPGQGLQWVGWINPKTGQPNNPRQFQGRVSLTRQASWDFDTYSFYMDLKAVRSDDTAIYFCARQRSDFWDFDVWGSGTQVTVSS
VL: DIQMTQSPSSLSARVGDTVTITCQANGYLNWYQQRRGKAPKLLIYDGSKLERGVPARFSGRRWGQEYNLTINNLQPEDVATYFCQVYEFIVPGTRLDLK

Target: YU2-gp120 (HIV-1 group M subtype B, isolate YU-2, UniProt P35961)
Test: ELISA

Binder	binding result
B1	binds
B2	binds

Reference: article PMC3351836 (Science (New York, N.y.), 2011)
